Reference: paper PMC5698293, “Single-molecule visualization of conformational changes and substrate transport in the vitamin B12 ABC importer BtuCD-F” (Nature Communications, 2017)

How the values were obtained:
[1] = molecular target: T1, BtuCD-F (BtuCD with BtuF D141C), ATPase site (Escherichia coli, UniProt P06611, C180S); conditions: 2 mM ATP, 10 mM MgCl2, pH 7.5, 30 °C; BtuCD WT with BtuF D141C
T1 construct: gene btuD

[2] = molecular target: BtuCDcys (cysteine mutant of the vitamin B12 ABC importer BtuCD: BtuC Q111C/W115L, cys-less BtuC and BtuD), reconstituted in liposomes (Escherichia coli) (UniProt P06609); assay: single-molecule fluorescence intensity change (TIRF microscopy); BtuCDcys labelled with Alexa Fluor 555 in 100-nm proteoliposomes (empty lumen, no ATP) tethered to glass by biotin-streptavidin; unlabelled BtuF added to the outside; 50 mM KPi, 200 mM KCl, pH 7.5; room temperature
[3] = molecular target: BtuCDcys (cysteine mutant of the vitamin B12 ABC importer BtuCD: BtuC Q111C/W115L, cys-less BtuC and BtuD), reconstituted in liposomes (Escherichia coli) (UniProt P06609)

Row | Compound | NADH-coupled PK/LDH ATPase assay in proteoliposomes [1] | percent of right-side-out complexes with an increase in fluorescence upon addition of BtuF [2] | percent of traces with an increase in fluorescence upon addition of BtuF [2] | fraction of inside-out complexes that respond to ATP by a decrease of the Alexa Fluor 555 fluorescence of BtuCDcys (corrected for orientation; unlabelled BtuF in the lumen) [3] | fraction of liposomes in which the Alexa Fluor 555 fluorescence of BtuCDcys decreased upon addition of 2 mM ATP and 10 mM Mg2+ on the outside (unlabelled BtuF in the lumen; no events without BtuF) [3]
1 | Nc1ncnc2c1ncn2[C@@H]1O[C@H](COP(=O)(O)OP(=O)(O)OP(=O)(O)O)[C@@H](O)[C@H]1O [ATP] | ATPase rate of various BtuCD-F mutants with or without fluorescent label reconstituted in liposomes |  |  |  | 
2 | BtuF D141C (periplasmic vitamin B12-binding protein, cys-less, signal peptide removed) (from UniProt P37028 23-266) (natural protein) |  | 82% | 45% | 18% | 8%
